Measurements as given in IntAct's records for PubMed 20498078.

Assays:
pcd15_mouse Pcdh15 = pcd15_mouse Pcdh15 (UniProt Q99PJ1)
Chain of pcd15_mouse Pcdh15 (Q99PJ1 whole entry): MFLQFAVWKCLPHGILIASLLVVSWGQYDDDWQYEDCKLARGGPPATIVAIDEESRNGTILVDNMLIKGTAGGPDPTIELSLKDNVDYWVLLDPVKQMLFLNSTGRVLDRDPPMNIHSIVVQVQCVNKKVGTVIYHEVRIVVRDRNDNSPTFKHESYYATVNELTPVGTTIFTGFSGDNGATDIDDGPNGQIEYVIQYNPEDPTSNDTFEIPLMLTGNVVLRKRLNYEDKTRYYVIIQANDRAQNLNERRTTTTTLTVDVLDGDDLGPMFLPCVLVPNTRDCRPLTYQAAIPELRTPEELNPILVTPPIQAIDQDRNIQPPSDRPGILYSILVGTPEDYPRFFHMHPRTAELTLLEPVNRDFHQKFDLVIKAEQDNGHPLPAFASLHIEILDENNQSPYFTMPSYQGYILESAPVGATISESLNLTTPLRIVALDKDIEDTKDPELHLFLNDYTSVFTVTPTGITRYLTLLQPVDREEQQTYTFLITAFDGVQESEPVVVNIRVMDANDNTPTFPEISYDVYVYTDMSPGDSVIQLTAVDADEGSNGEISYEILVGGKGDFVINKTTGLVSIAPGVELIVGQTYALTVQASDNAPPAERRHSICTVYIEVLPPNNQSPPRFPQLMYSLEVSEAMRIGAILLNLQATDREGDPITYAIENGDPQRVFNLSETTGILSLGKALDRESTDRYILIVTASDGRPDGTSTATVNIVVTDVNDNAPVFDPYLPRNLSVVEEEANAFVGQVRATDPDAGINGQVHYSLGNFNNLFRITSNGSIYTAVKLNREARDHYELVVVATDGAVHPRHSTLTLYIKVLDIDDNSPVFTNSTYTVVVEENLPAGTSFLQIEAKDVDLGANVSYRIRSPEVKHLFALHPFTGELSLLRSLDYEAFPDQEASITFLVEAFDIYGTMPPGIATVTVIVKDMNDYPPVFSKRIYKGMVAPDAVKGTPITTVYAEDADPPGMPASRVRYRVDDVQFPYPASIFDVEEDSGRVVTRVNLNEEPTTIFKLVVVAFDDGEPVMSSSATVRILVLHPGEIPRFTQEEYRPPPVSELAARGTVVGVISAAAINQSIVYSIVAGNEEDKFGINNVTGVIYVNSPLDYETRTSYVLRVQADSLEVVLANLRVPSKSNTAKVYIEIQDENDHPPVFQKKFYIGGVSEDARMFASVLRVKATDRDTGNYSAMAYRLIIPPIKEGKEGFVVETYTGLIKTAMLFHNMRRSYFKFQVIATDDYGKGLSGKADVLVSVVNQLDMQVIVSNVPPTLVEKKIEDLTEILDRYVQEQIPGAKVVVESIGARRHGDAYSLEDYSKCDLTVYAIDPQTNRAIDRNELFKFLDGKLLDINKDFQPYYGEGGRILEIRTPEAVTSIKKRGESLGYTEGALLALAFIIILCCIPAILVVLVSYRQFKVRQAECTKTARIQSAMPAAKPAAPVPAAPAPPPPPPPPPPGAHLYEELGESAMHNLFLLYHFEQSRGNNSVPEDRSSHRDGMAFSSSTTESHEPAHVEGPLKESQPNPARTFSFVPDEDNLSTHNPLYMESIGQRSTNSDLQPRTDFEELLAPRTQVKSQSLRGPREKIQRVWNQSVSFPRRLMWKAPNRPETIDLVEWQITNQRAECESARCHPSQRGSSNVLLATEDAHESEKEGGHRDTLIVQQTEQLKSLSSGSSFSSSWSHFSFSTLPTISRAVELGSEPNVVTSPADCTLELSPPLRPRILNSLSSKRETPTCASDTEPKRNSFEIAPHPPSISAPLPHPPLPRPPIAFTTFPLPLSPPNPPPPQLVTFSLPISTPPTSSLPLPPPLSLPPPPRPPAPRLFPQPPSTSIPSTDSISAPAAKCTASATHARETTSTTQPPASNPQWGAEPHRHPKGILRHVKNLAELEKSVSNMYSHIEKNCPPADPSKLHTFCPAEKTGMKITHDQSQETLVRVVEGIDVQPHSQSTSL

Substance | effect of a mutation on the interaction (pcd15_mouse Pcdh15) | effect of a mutation on the interaction (Cdh23, Q99PF4-1)
Cadherin-23 (Mus musculus), Q99PF4-1 R27I | decreasing interaction | –
Cadherin-23 (Mus musculus), Q99PF4-1 N26I;R27I | decreasing interaction | –
Cadherin-23 (Mus musculus), Q99PF4-1 N26I | decreasing interaction | –
Protocadherin-15 (Mus musculus), Q99PJ1 E35I;D36A | – | decreasing interaction
